From patent US8722856B2, “Anti-MUC1 antibody” (National University Corporation Hokkaido University, priority 2008, dated 2014)

Legend:
[1] = molecular target: T1, cancer-associated structure and normal tissue-associated structure of MUC1 (Homo sapiens, UniProt P15941); assay: Sugar chain specificity, overall statements from competitive ELISA; type: binding
T1 construct: Synthesis of MUC1 Tn20-mer Glycopeptide; made in house; host or cells: chemical solid-phase synthesis, partly with enzymatic sugar extension
Method: Such specificity can be expressed by a difference in cross reactivity. The cross reactivity is obtained by a calculation equation of (IC50 for cancer-associated structure 2,3ST/IC50 for sugar chain structure to be compared)×100(%). As used herein, inclusion of specificity refers to a difference of 2 fold or more.
Ten days after cell fusion, screening of a specific antibody-producing cell was performed. ELISA was used in screening is as follows. To each well of a 384-well microtiter plate (manufactured by Nunc) 35 μl of a Tris buffer (50 mM Tris-HCl, pH 7.5) containing 0.35 μg of an anti-mouse IgG antibody (manufactured by Shibayagi Co., Ltd.) was added to immobilize the antibody at 4° C. for 16 hours. After these wells were washed with 90 μl of a washing solution (physiological saline containing 0.01% Tween 20) once, 200 μl of BLOCK ACE (manufactured by Dainippon Sumitomo Pharma Co., Ltd.) was added, and this was allowed to stand at room temperature for 2 hours for blocking (an anti-mouse IgG antibody solid-phased plate). After each well was washed with 90 μl of a washing solution once, 10 μl of a hybridoma culture supernatant, 10 μl of a buffer A (50 mM Tris buffer containing 0.5% bovine serum albumin, 0.01% Tween 80, 0.05% Proclin 150, and 0.15 M. NaCl, pH 7.4), and 10 μl of a buffer A containing 0.01 ng of Biotin-2,3-ST(DT*R)-20 (Compound No. 16 of Table 1) and 2 ng of Streptavidin-HRP (manufactured by PIERCE) were added to perform a reaction at 4° C. for 16 hours. Then, after each well was washed with 90 μl of a washing solution three times, 25 μl of TMB+-Substrate-Chromogen (manufactured by DAKO) was added to develop a color at room temperature for 30 minutes, 25 μl of 0.05 M sulfuric acid was added to stop the reaction, and absorbance was measured at 450 nm. […] Using a mouse monoclonal antibody isotyping ELISA kit (manufactured by BD Bioscience), a subclass of the antibody was determined and, as a result, an isotype of 1B2 was IgG2a.
Fifteen (15) μl of a buffer A containing a MUC1 antibody was added to an anti-mouse IgG antibody solid-phased plate and the reaction was allowed to proceed at room temperature for 3 hours. […] Then, after each well was washed with 90 μl of a washing solution three times, 15 μl of TMB+-Substrate-Chromogen (manufactured by DAKO) was added to develop a color at room temperature for 30 minutes, 15 μl of 0.05 M sulfuric acid was added to stop the reaction, and absorbance at 450 nm was measured.

[2] = molecular target: T2, Biotin-Tn(DT*R)-100 (Compound No. 21) (Homo sapiens, UniProt P15941); assay: Affinity of antibody, Biacore T100, sensor chip SA; type: binding; settings: Biotin-Tn(DT*R)-100 solid-phased
T2 construct: made in house; host or cells: chemical solid-phase synthesis
From the text: Biotin-Tn(DT*R)-100 (Compound No. 21) was solid-phased on a sensor chip SA (manufactured by GE Healthcare), and a dissociation constant of each of the following MUC1 antibody, 1B2, PankoMab (manufactured by GLYCOPOPE) currently at a pre-clinical stage, VU-2G7 (manufactured by MONOSAN) which is an antibody obtained by glycopeptide immunization, O.N.272 (manufactured by SantaCruz), C595 (manufactured by Acris), B416 (manufactured by GeneTex), and VU-3C6 (manufactured by Exalpha Biologicals) was analyzed using Biacore T100, and the result was as shown in the following Table 3.

[3] = tested on: human mammary gland epithelial cell 184A1; assay: Binding of antibody to cell with FACS; type: cell-based
Method: Whether the MUC1 protein expressed on a surface of a cancer cell membrane and the 1B2 antibody bound thereto was investigated by FACS. A human breast cancer cell strain T-47D (ATCC, HTB-133) and a human mammary gland epithelial cell 184A1 (ATCC, CRL-8798) which had been trypsinized with Trypsin (manufactured by Invitrogen) were washed once with a FACS buffer (PBS containing 5% FCS, 0.05% sodium azide), and suspended in 100 μl of a FACS buffer containing 10 μg/ml 1B2 antibody and the reaction was allowed to proceed at room temperature for 2 hours. The resultant reaction product was washed with a FACS buffer two times, and suspended in 200 μl of FITC-Goat Anti-Mouse IgG (manufactured by ZYMED), and the reaction was allowed to proceed at room temperature for 1 hour. After washing with a FACS buffer two times, analysis was performed by FACSAria (manufactured by BD). As a result, in T-47D, the 1B2 antibody greatly shifted the fluorescent signal of FACS (about 300-fold) as compared with a control mouse IgG2a antibody (manufactured by SIGMA-ALDRICH), while in 184A, fluorescent shift by 1B2 was scarcely seen (about 2-fold).

T2 sequence (P15941 136-235): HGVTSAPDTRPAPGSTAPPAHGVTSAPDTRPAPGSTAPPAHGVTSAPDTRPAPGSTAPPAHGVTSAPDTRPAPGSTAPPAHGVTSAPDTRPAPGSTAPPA
T1 sequence (P15941 136-155): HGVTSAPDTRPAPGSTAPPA

IC50 for a cancer-associated structure [1]: ≤ 100 nM
cross reactivity for the normal tissue-associated structure, letting 2,3ST to be 100% [1]: ≤ 1%
specificity for a cancer-associated structure as compared with that for a normal tissue-associated structure [1]: at least 100 fold
cross reactivity with a sugar chain structure highly expressed in normal cells ([1]; 2,3ST6L(DT*R)-20, 2,3-ST6SL(DT*R)-20): low cross reactivity
affinity for a sugar chain structure highly expressed in cancer cells ([1]; T(DT*R)-20, 2,3-ST(DT*R)-20, Tn(DT*R)-20): high affinity
Kd1 [2]: 0.00015 s⁻¹
ka1 [2]: 410000 M⁻¹ s⁻¹
Kd ([2]; read-out: dissociation constant KD): 0.37 nM
B1: 1B2: mouse monoclonal anti-MUC1 antibody, isotype IgG2a, clone from immunization with 2,3-ST(DT*R)-20 conjugated to BSA (antibody, V domains shown)
VH: MEWIWIFLFILSGTAGVQSQVQLQQSGAELARPGASVKLSCKASGYTFTNYGLSWVKQRTGQGLEWIGENHPGSGIIYHNEKFRGKATLTADKSSSTAYVQLSSLTSEDSAVYFCARSSGTRGFAYWGQGTLVTVSA
VL: MKLPVRLLVLMFWIPASSSDVLMTQTPLSLPVSLGDQASISCRSSQSIVHSNGNTYLEWYLQKPGQSPKLLIYKVSNRFSGVPDRFSGSGSGTDFTLKISRVEAEDLGVYYCFQGSHGPWTFGGGTKLEIKRA
modifications: Antibody 1B2 VH sequence; Antibody 1B2 VL sequence
reaction with mammary gland epithelial cell (FACS) ([3]; 184A1): hardly reacts
shift of fluorescent signal of FACS as compared with control mouse IgG2a antibody ([3]; 184A1, 10 μg/ml antibody): about 2 fold
